This is an account of results in paper PMC3912212.

In assay [1] the target is paclitaxel-stabilized microtubules (bovine brain tubulin) (bovine (purified from juvenile bovine brains)) (UniProt Q6B856). The assay is described as follows: TIRF microscopy, fluorescence intensity on microtubules; surface-immobilized microtubules; CCA-GFP with no added salt, 25 mM KCl or 50 mM KCl; line-scan intensity, mean ± SD.
Assay [2] shares this target. The experiment in a line: TIRF microscopy, single-molecule assay for microtubule-associated proteins; rhodamine-labeled microtubules immobilised on the surface by anti-rhodamine antibodies; CCA-GFP in solution; lifetimes of tracked single molecules, exponential fit, corrected for photobleaching.
The target is the same in assay [3]. The experiment in a line: calculated from the TIRF intensity titration (KD) and the single-molecule lifetimes (koff); association rate constant inferred from KD and koff, not measured directly.
Assay [4] has the same target. The experiment in a line: TIRF microscopy, fluorescence intensity on microtubules against concentration; fluorescently-labeled microtubules adhered to cover glass; CCA-GFP introduced at increasing concentrations and allowed to equilibrate; line-scan intensity fit to a Michaelis-Menten curve (binding isotherm).
Assay [5] has the same target.
Assay [6] deals with subtilisin-digested microtubules (C-terminal tails of tubulin removed) (bovine (purified from juvenile bovine brains)).
In assay [7] the target is paclitaxel-stabilized microtubules (bovine brain tubulin) (bovine (purified from juvenile bovine brains)) (UniProt Q6B856). The experiment in a line: TIRF microscopy, fluorescence intensity on microtubules; one flow chamber containing both brightly-labeled microtubules and dimly-labeled, subtilisin-digested microtubules; CCA-GFP in solution; line-scan intensity, mean ± SD.

Turning to “CCA-GFP, minimal chromosome passenger complex of INCENP a.a. 491-873 (coiled-coil domain and INBox) and Aurora-B (from UniProt O13024 491-873; Q6DE08 1-361)”, in assay [1], the CCA-GFP intensity on microtubules, 25 mM KCl added came to 117 a.u; the CCA-GFP intensity on microtubules, 50 mM KCl added turned out to be 27 a.u; the CCA-GFP intensity on microtubules, no added salt amounted to 277 a.u. Besides, in assay [2], the off-rate constant (koff) was determined as 0.66 s⁻¹ and the mean residence time on the lattice worked out at 1.5 s. Further, the kon in assay [3] is 8.25e+06 M⁻¹ s⁻¹. The substance further displayed a dissociation constant (Kd) in assay [4] of 80 nM. In addition, in assay [5], the normalized 32P band intensity of the INBox motif (CCA auto-phosphorylation) in an in vitro kinase assay with 3 µM microtubules; buffer control 0.62 worked out at 0.92 a.u. Moreover, the normalized 32P band intensity of the INBox motif (CCA auto-phosphorylation) in an in vitro kinase assay with 3 µM subtilisin-digested microtubules; buffer control 0.62, undigested microtubules 0.92 in assay [6] amounted to 0.64 a.u. The GFP intensity on undigested microtubules in assay [7] stood at 375 a.u.

In general, koff refers to the first-order rate constant of dissociation. Read a low koff as slow dissociation. In general, kon refers to a measure of how fast the partners come together. As a reminder, the Kd is the equilibrium constant for the complex coming apart. A high value points to a looser complex.
